Article PMC10239968, “[^18F]AlF-NOTA-ADH-1: A new PET molecular radiotracer for imaging of N-cadherin-positive tumors” (Frontiers in Oncology, 2023)

Columns and labels:
SW480 tumor xenografts = experiment: Micro-PET imaging, SW480 tumor model; assay type: in vivo, nude mice; settings: SW480 tumor-bearing nude mouse model, 60 min after injecting, non-blocked
Method: (§1) [^18F]AlF-NOTA-ADH-1 was evaluated by micro-PET imaging on nude mice bearing a PDX tumor, SW-480 and BxPC3 tumor xenografts. Each tumor-bearing nude mouse was injected with 3.7MBq [^18F]AlF-NOTA-ADH-1 via the tail vein. After being anesthetized with isoflurane, tumor-bearing nude mice were imaged using a micro-PET/CT scanner at 60 minutes post-injection under continuous isoflurane inhalation using a nasal mask with a connecting tube. Micro-PET/CT scanning was performed after low-dose 3D acquisition CT scanning at 10 minutes per bed. A blocking study was conducted, in which a saturating dose of unlabeled ADH-1 (20 mg/kg of mouse body weight) was intravenously administered 60 min before the intravenous injection of [^18F]AlF-NOTA-ADH-1.
(§2) The three-dimensional volume of interest (VOI) was used to assess the standard uptake value (SUV) of selected organs. The Seimens Inveon analysis software configured with micro-PET/CT was used to delineate the region of interest along the edge of the tumor and each normal tissue on the PET image. Subsequently, the SUV of each region of interest was measured, and the tumor/non-tumor ratio (T/NT) between the tumor and normal tissue was measured.

[1] = system: pancreatic PDX tumor xenografts; experiment: in vivo; set-up: species or system BALB/c nu/nu mice; settings: PDX xenograft nude mice, n=5, mean±SD
Method: (§3) All animal experiments were performed in accordance with and approved by the Institutional Animal Care and Use Committee guidelines of the First Affiliated Hospital of Zhejiang University School of Medicine. BALB/c nu/nu mice (female, 20 ± 3 g, 4- to 6-week-old; Department of Laboratory Animal Science, Zhejiang University) were used in this study. The SW480 and BxPC3 xenografts were generated, and 5×10^6 tumor cells were subcutaneously injected into the flanks of female athymic nude mice. The PDX-bearing mouse models were established as follows. Pancreatic cancer (diagnosed as pancreatic ductal adenocarcinoma) tissues were obtained from the surgery of a patient. Written informed consent was obtained from the patient, and the research protocol was approved by the Clinical Research Ethics Committee of the First Affiliated Hospital of Zhejiang University School of Medicine. The sample was sectioned into about 1mm^3 pieces, and the tumor tissues were subcutaneously implanted into BALB/c nu/nu mice flanks. Mice were allowed free access to sterile water and food and were kept under strict disease-free conditions with controlled temperature (~25°C), humidity (50-70%), and circadian rhythms (12-hour light/dark cycles). All necessary procedures were carried out to minimize discomfort and avoid the waste of animals. The length and width of the tumor were measured every other day. Biodistribution studies and positron emission tomography in mice were performed after the tumor volume reached 150 to 200 mm^3.
(§4) The BALB/c nude mice were randomized into different tumor models (SW480, BxPC3, and pancreatic PDX), including 5 mice per group. Each nude mouse was injected with 0.74MBq (20μCi) [^18F]AlF-NOTA-ADH-1 through the caudal vein. Blood was collected from the orbit, and the mice were dissected to collect the brain, heart, lung, liver, liver, spleen, stomach, intestine, muscle, bone and others at 30 min, […], 60min, 90min and 120min after injection. In the blocked group, the study was performed with a saturating dose of ADH-1 (20 mg/kg of mouse body weight) intravenously administered 60min before the intravenous injection of [^18F]AlF-NOTA-ADH-1 in the pancreatic PDX model and SW480 xenograft model. The mice in the tumor xenograft model were sacrificed 1h after [^18F]AlF-NOTA-ADH-1 injection. The nude mice were dissected, and tumor tissues and related tissues (blood, brain, heart, lung, liver, spleen, kidney, stomach, intestine, muscle and bone) were weighed, and their radioactivity was measured by γ-counter. The radioactivity results were recorded as % ID/g.

in vivo = experiment: in vivo; set-up: species or system BALB/c nu/nu mice; settings: female, BALB/c nu/nu, mouse, in vivo, iv, 0.74 MBq (20 uCi) per mouse, total radioactivity
Method: as §3, §4

[2] = system: pancreatic PDX tumor xenografts; experiment: Micro-PET imaging, PDX tumor model; assay type: in vivo, nude mice; settings: 60 min p.i.
Method: as §1, §2

BxPC3 tumor xenografts = experiment: Micro-PET imaging, BxPC3 tumor model; assay type: in vivo, nude mice; settings: BxPC3-bearing tumor model mice, 60 min p.i.
Method: as §1, §2

[3] = assay type: physicochemical
Method: The partition coefficient of [^18F]AlF-NOTA-ADH-1 was measured by assessing the distribution of radioactivity in 1-octanol and phosphate buffer in a 2 mL centrifuge tube. 20µL of [^18F]AlF-NOTA-ADH-1 solution was added to a tube containing 0.5 mL each of 1-octanol and PBS. The mixture was vortexed and centrifuged (5,000 r/min) for 5 min. A total of 2 samples (50 μL) were collected from each layer and were assayed in a γ counter. Partition coefficients (log Po/w) are shown as the log counts in 1-octanol vs. PBS layers (n=3).

[4] = blocking (ADH-1 20 mg/kg i.v. 60min before), 60min p.i.

Question: For CC(=O)N[C@H]1CSSC[C@@H](C(=O)NCCNC(=O)CN2CCN(CC(=O)O)CCN(CC(=O)O)CC2)NC(=O)[C@H](C(C)C)NC(=O)[C@H](C)NC(=O)[C@H](Cc2c[nH]cn2)NC1=O [[^18F]AlF-NOTA-ADH-1], which “Micro-PET T/Bone” value (SW480 tumor xenografts) is on record?
Answer: Its value is 1.903±0.273.

Question: What about the “Micro-PET T/Lung” value (SW480 tumor xenografts) of the same compound?
Answer: The value was 3.359±2.998.

Question: And the Micro-PET tumor/muscle ratio (SW480 tumor xenografts)?
Answer: Its Micro-PET tumor/muscle ratio is 1.443±0.121.

Question: And the T/Blood ratio [1, 4]?
Answer: Its T/Blood ratio is 9.39± 0.10.

Question: What about the T/Muscle ratio [1, 4] of the same compound?
Answer: The T/Muscle ratio was 2.12±0.06.

Question: And the Tumor uptake [1, 4]?
Answer: The Tumor uptake was 3.75±0.07 %ID/g.

Question: And the T/Blood ratio ([1]; non-blocking, 30min p.i.)?
Answer: The T/Blood ratio was 10.72± 1.02.

Question: And the T/Muscle ratio ([1]; non-blocking, 30min p.i.)?
Answer: Its T/Muscle ratio is 5.69±0.72.

Question: What about the Tumor uptake ([1]; non-blocking, 30min p.i.) of the same compound?
Answer: Its Tumor uptake is 8.04±1.82 %ID/g.

Question: What about the T/Blood ratio ([1]; non-blocking, 60min p.i.) of the same compound?
Answer: Its T/Blood ratio is 19.21± 2.20.

Question: And the T/Muscle ratio ([1]; non-blocking, 60min p.i.)?
Answer: Its T/Muscle ratio is 8.70±2.68.

Question: And the Tumor uptake ([1]; non-blocking, 60min p.i.)?
Answer: The Tumor uptake was 10.76±2.16 %ID/g.

Question: And the T/Blood ratio ([1]; non-blocking, 90min p.i.)?
Answer: Its T/Blood ratio is 13.54± 0.35.

Question: What about the T/Muscle ratio ([1]; non-blocking, 90min p.i.) of the same compound?
Answer: The T/Muscle ratio was 4.15±1.86.

Question: What about the Tumor uptake ([1]; non-blocking, 90min p.i.) of the same compound?
Answer: The Tumor uptake was 7.18±0.53 %ID/g.

Question: And the T/Blood ratio ([1]; non-blocking, 120min p.i.)?
Answer: Its T/Blood ratio is 10.27±1.36.

Question: And the T/Muscle ratio ([1]; non-blocking, 120min p.i.)?
Answer: Its T/Muscle ratio is 3.97±1.56.

Question: What about the Tumor uptake ([1]; non-blocking, 120min p.i.) of the same compound?
Answer: The Tumor uptake was 4.93±1.65 %ID/g.

Question: And the tissue uptake at 0.5 h (in vivo; Blood uptake)?
Answer: The tissue uptake at 0.5 h was 0.69 ± 0.22 %ID/g.

Question: And the tissue uptake at 1 h (in vivo; Blood uptake)?
Answer: Its tissue uptake at 1 h is 0.4 ± 0.18 %ID/g.

Question: What about the tissue uptake at 1.5 h (in vivo; Blood uptake) of the same compound?
Answer: Its tissue uptake at 1.5 h is 0.39 ± 0.11 %ID/g.

Question: And the tissue uptake at 2 h (in vivo; Blood uptake)?
Answer: The tissue uptake at 2 h was 0.41 ± 0.07 %ID/g.

Question: And the tissue uptake at 0.5 h (in vivo; Bone uptake)?
Answer: The tissue uptake at 0.5 h was 1.74 ± 0.81 %ID/g.

Question: And the tissue uptake at 1 h (in vivo; Bone uptake)?
Answer: The tissue uptake at 1 h was 2.29 ± 0.96 %ID/g.

Question: And the tissue uptake at 1.5 h (in vivo; Bone uptake)?
Answer: The tissue uptake at 1.5 h was 1.65 ± 1.3 %ID/g.

Question: And the tissue uptake at 2 h (in vivo; Bone uptake)?
Answer: Its tissue uptake at 2 h is 0.74 ± 0.35 %ID/g.

Question: And the tissue uptake at 0.5 h (in vivo; Brain uptake)?
Answer: The tissue uptake at 0.5 h was 0.62 ± 0.14 %ID/g.

Question: What about the tissue uptake at 1 h (in vivo; Brain uptake) of the same compound?
Answer: Its tissue uptake at 1 h is 0.99 ± 0.47 %ID/g.

Question: What about the tissue uptake at 1.5 h (in vivo; Brain uptake) of the same compound?
Answer: The tissue uptake at 1.5 h was 0.63 ± 0.18 %ID/g.

Question: And the tissue uptake at 2 h (in vivo; Brain uptake)?
Answer: Its tissue uptake at 2 h is 0.51 ± 0.27 %ID/g.

Question: And the tissue uptake at 0.5 h (in vivo; Heart uptake)?
Answer: Its tissue uptake at 0.5 h is 2.54 ± 0.97 %ID/g.

Question: And the tissue uptake at 1 h (in vivo; Heart uptake)?
Answer: The tissue uptake at 1 h was 0.96 ± 0.17 %ID/g.

Question: What about the tissue uptake at 1.5 h (in vivo; Heart uptake) of the same compound?
Answer: Its tissue uptake at 1.5 h is 0.95 ± 0.25 %ID/g.

Question: What about the tissue uptake at 2 h (in vivo; Heart uptake) of the same compound?
Answer: The tissue uptake at 2 h was 0.81 ± 0.28 %ID/g.

Question: What about the tissue uptake at 0.5 h (in vivo; Intestines uptake) of the same compound?
Answer: Its tissue uptake at 0.5 h is 3.82 ± 0.12 %ID/g.

Question: And the tissue uptake at 1 h (in vivo; Intestines uptake)?
Answer: The tissue uptake at 1 h was 2.14 ± 0.04 %ID/g.

Question: What about the tissue uptake at 1.5 h (in vivo; Intestines uptake) of the same compound?
Answer: Its tissue uptake at 1.5 h is 3.93 ± 2.67 %ID/g.

Question: What about the tissue uptake at 2 h (in vivo; Intestines uptake) of the same compound?
Answer: The tissue uptake at 2 h was 2.53 ± 2 %ID/g.

Question: What about the tissue uptake at 1 h (in vivo; Muscle uptake) of the same compound?
Answer: The tissue uptake at 1 h was 1.56 ± 0.07 %ID/g.

Question: What about the tissue uptake at 1.5 h (in vivo; Muscle uptake) of the same compound?
Answer: Its tissue uptake at 1.5 h is 2.03 ± 0.05 %ID/g.

Question: What about the tissue uptake at 2 h (in vivo; Muscle uptake) of the same compound?
Answer: Its tissue uptake at 2 h is 1.18 ± 0.6 %ID/g.

Question: And the tissue uptake at 0.5 h (in vivo; Skin uptake)?
Answer: Its tissue uptake at 0.5 h is 0.11 ± 0.04 %ID/g.

Question: What about the tissue uptake at 1 h (in vivo; Skin uptake) of the same compound?
Answer: The tissue uptake at 1 h was 0.95 ± 0.46 %ID/g.

Question: What about the tissue uptake at 1.5 h (in vivo; Skin uptake) of the same compound?
Answer: Its tissue uptake at 1.5 h is 1.51 ± 0.02 %ID/g.

Question: What about the tissue uptake at 2 h (in vivo; Skin uptake) of the same compound?
Answer: Its tissue uptake at 2 h is 1.56 ± 0.66 %ID/g.

Question: And the tissue uptake at 0.5 h (in vivo; Stomach uptake)?
Answer: Its tissue uptake at 0.5 h is 3.23 ± 1.69 %ID/g.

Question: What about the tissue uptake at 1 h (in vivo; Stomach uptake) of the same compound?
Answer: Its tissue uptake at 1 h is 3.4 ± 0.12 %ID/g.

Question: And the tissue uptake at 1.5 h (in vivo; Stomach uptake)?
Answer: The tissue uptake at 1.5 h was 6.16 ± 1.58 %ID/g.

Question: And the tissue uptake at 2 h (in vivo; Stomach uptake)?
Answer: The tissue uptake at 2 h was 1.6 ± 1.04 %ID/g.

Question: What about the Micro-PET tumor/muscle ratio ([2]; 3.7MBq i.v., SUV-based T/NT) of the same compound?
Answer: Its Micro-PET tumor/muscle ratio is 8.069±2.832.

Question: And the “Micro-PET T/Lung” value ([2]; printed in the sentence on blocking with unlabeled ADH-1 (group unclear))?
Answer: Its value is 5.062 ± 0.805.

Question: And the “Micro-PET T/Bone” value (BxPC3 tumor xenografts)?
Answer: Its value is 0.055 ± 0.022.

Question: What about the “Micro-PET T/Lung” value (BxPC3 tumor xenografts) of the same compound?
Answer: The value was 0.291 ± 0.195.

Question: What about the Micro-PET tumor/muscle ratio (BxPC3 tumor xenografts) of the same compound?
Answer: Its Micro-PET tumor/muscle ratio is 1.018 ± 0.498.

Question: And the “Partition coefficient (log Po/w)” value [3]?
Answer: The value was -2.45 ± 0.09.
